Measured values: US7537762B2, “Human monoclonal antibodies to activin receptor-like kinase-1” (Amgen Fremont, Inc., priority 2005, dated 2009)
Blank lines part the entries; values can stand above or below the molecule they belong to.

Experiments:
[1] = biological target: T1, Recombinant human ALK-1/FC chimera (Homo sapiens, UniProt P37023); experiment: BIACORE cross-competition / epitope binning; assay type: binding; details: panel of 14 antibodies, 50 nM, primary/secondary injections
T1 construct: purchased R&D Systems, Inc. 370-AL; host or cells: mouse myeloma cell line
Description: Cross-competition experiments were performed using the BIACORE® 3000 instrument (Biacore International AB, Uppsala, Sweden and Piscataway, N.J.), following the manufacturer's protocols.
Recombinant human ALK-1/FC chimera was immobilized onto the dextran layer of a CM5 biosensor chip using amine coupling. Chips were prepared using 10 mM acetate buffer pH 5.0 as the immobilization buffer and a protein density of 940 RU was achieved. Deactivation of unreacted N-hydroxysuccinimide esters was performed using 1 M ethanolamine hydrochloride, pH 8.5.
Purified mAbs were diluted to a concentration of 50 nM in HBS-EP running buffer (0.01 M HEPES pH 7.4, 0.15 M NaCl, 3 mM EDTA, 0.005% Polysorbate 20). A primary antibody was chosen and then injected across the flow cell for 600 seconds at a rate of 10 μL/min. After the injection was complete, a secondary antibody was chosen and injected across the same flow cell for 600 seconds at a rate of 10 μL/min. The sensor surface was regenerated by a 12 second injection of 100 mM H3PO4 (25 μL/min).
After regeneration, the primary antibody was again injected across the flow cell for 600 seconds at a rate of 10 μL/min. […] Threshold values were determined by using the same antibody as both the primary antibody and secondary antibody. […]

[2] = biological target: T2, recombinant human ALK-1/Fc fusion protein (hALK-1/Fc) (Homo sapiens, UniProt P37023); experiment: Avidity by surface plasmon resonance (BIACORE), immobilized hALK-1/Fc; assay type: binding; details: SPR, dissociation monitored 10 minutes
T2 construct: purchased R&D Systems, Inc. 370-AL; host or cells: mouse myeloma cell line
Description: Avidity measures of purified anti-ALK-1 antibodies by surface plasmon resonance using the BIACORE® 3000 instrument were performed as follows using the manufacturer's protocols.
To perform kinetic analyses, recombinant human ALK-1/Fc fusion protein (hALK-1/Fc) and cynomologus ALK-1/Fc fusion protein (cALK-1/Fc) were immobilized on separate flow cells of a CM5 BIAcore sensor chip using routine amine coupling. […] Deactivation of unreacted N-hydroxysuccinimide esters was performed using 1 M ethanolamine hydrochloride, pH 8.5. Antibody samples in running buffer were prepared at concentrations ranging from 0.125 to 2 nM (a 0 nM solution comprising running buffer alone was included as a zero reference). Samples were randomized and injected in duplicate for 10 minutes each across all 4 flow cells using HBS-EP (10 mM HEPES pH 7.4, 150 mM NaCl, 3 mM EDTA, 0.005% Surfactant P20) as running buffer. […] A flow rate of 25 μL/min was used to determine avidity values. The dissociation of the antibody was monitored for 10 minutes, the surface regenerated by a 12 second injection of 100 mM H3PO4 (25 μL/min). The raw data were processed using the Scrubber (©BioLogic Software) software package and analyzed using the CLAMP (©BioLogic Software) software package. […]

[3] = system: human vessels (human CD-31); experiment: Collagen model in human foreskin-SCID chimera mice, human CD-31 staining; assay type: in vivo, human foreskin-SCID chimera mouse; details: 3.0 mg/ml Collagen, no HMVEC, 100 μg/ml id. injection
Description: Upon arrival from National Disease Research Institute and Cooperative Human Tissue Network, human foreskin pieces were trimmed of unhealthy regions and transferred to RPMI media (CELLGRO®/Mediatech, Cat# MT-15-040-CV supplemented with Penicillin and Streptamycin (GIBCO®/Life Tech, Cat# 15070-063) (add 5 mLs of the pen/strep stock solution into 500 mLs of RPMI). Using a scalpel and cutting in sterile petri dish, the skins were trimmed to an oval shape of approximately 8×13 mm cleaning any ragged ends and connective tissues, and stored on wet ice prior to surgery. The appropriate volume (4 μL/gram of animal) of 100 mg/mL (KeTASET®(ketamine), Fort Dodge Animal Health)/1 mg/mL medetomidine (Pfizer Animal Health-DORMITOR®(medetomidine)) solution was intraperitoneally injected into scid mouse abdomen (i.e., at a 45° angle, under skin but not too deep internally). Once anesthetized, the mice were applied with eye lubricant, a subcutaneuosly injection of Ketoprofen (10 mg/kg, Fort Dodge Animal Health) and hair was shaved over the site of the surgery. […] Complete healing occurred between 21-28 days after which time skins were ready to be inoculated with tumor cells.

monomeric ALK-ECD = biological target: T3, monomeric ALK-ECD (Homo sapiens, UniProt P37023); experiment: Affinity constants of representative mAbs by SPR (BIACORE), Example 8; assay type: binding; details: mAb immobilized (200-400 RU), monomeric ALK-ECD 3.125-400 nM, different ECD preparation than Example 7
T3 construct: made in house; host or cells: 293T cells, transient, secreted (pSecTag2/Hygro)
Description: Affinity measures (KD and koff) of purified anti-ALK-1 antibodies by surface plasmon resonance using the BIACORE® 3000 instrument were performed as follows using the manufacturer's protocols.
To perform kinetic analyses, affinity-purified mAbs were immobilized onto the dextran layer of a CM5 biosensor chip using amine coupling. Surfaces were prepared using 10 mM acetate buffer pH 5.0 as the immobilization buffer and protein densities of 200-400 RU were achieved. Deactivation of unreacted N-hydroxysuccinimide esters was performed using 1 M ethanolamine hydrochloride, pH 8.5. Samples of monomeric ALK-ECD in running buffer were prepared at concentrations ranging from 3.125-400 nM (a 0 nM solution comprising running buffer alone was included as a zero reference). Samples were randomized and injected in duplicate for 2 minutes each across all 4 flow cells using HBS-EP (10 mM HEPES pH 7.4, 150 mM NaCl, 3 mM EDTA, 0.005% Surfactant P20) as running buffer. […] Dissociation of monomeric ALK-ECD was monitored for 10 minutes, the surface regenerated by a 12 second injection of 100 mM H3PO4 (25 μL/min). The raw data were processed using the Scrubber (©BioLogic Software) software package and analyzed using the CLAMP (©BioLogic Software) software package. The data were fit globally to a simple 1:1 Langmuir binding model.

B1: 1.11.1: human anti-ALK-1 monoclonal antibody; VH SEQ ID NO: 10, VL SEQ ID NO: 12 (antibody, V domains shown)
VH: QVQLVESGGGVVQPGRSLRLSCAASGFTFSSHGMYWVRQAPGKGLEWVAAIWYDGSNKYYADSVKGRFTISRDNSKNTLYLQMNSLRAEDTAVYYCARDQEQWPDVFDIWGQGTMVTVSS
VL: DIQMTQSPSSLSASVGDRVTITCRASQGIRNYLAWFQQKPGKAPKSLIYGASSLQSGVPSKFSGSGSGTDFTLTISSLQPEDFATYYCQQYNSYPLTFGGGTKVEIK
modifications: Human
epitope bin [1]: in one bin

B3: 1.14.1: human anti-ALK-1 monoclonal antibody; VH SEQ ID NO: 18, VL SEQ ID NO: 20 (antibody, V domains shown)
VH: QVQLQESGPGLVKPSETLSLTCTVSGGSVSSGDYYWNWIRQPPGKGLEWIGYIYYSGSTNYNPSLKSRVTISVDTSKNQFSLKLSSVTAADTAVYYCAREAVSAFDYWGQGTLVTVSS
VL: EIVLTQSPGTLSLSPGERATLSCRASQSVSSTYLAWHQQKPGQAPRLLIYGVSSRASGVPDRFSGSGSGTDFTLTISRLEPEDFAVYYCQQYGSSPITFGQGTRLEIK
modifications: Human
Human vessel scoring ([3]; 4 days of Rx): 44 ± 28 1 × 10^3
% of Control (human vessels) ([3]; 4 days, control = isotype control antibody): 59%

The next lines start with the values.

hALK-1/Fc koff [2]: 1.1e-05 s⁻¹
B2: 1.162.1: human anti-ALK-1 monoclonal antibody; VH SEQ ID NO: 26, VL SEQ ID NO: 28 (antibody, V domains shown)
VH: QVQLQESGPGLVKPSQTLSLICTVSGGSISSGEYYWSWIRQHPGKGLEWIGYIYYSGSTYYNPSLKSRLTISVDTSKNQFSLKLSSVTAADTAVYYCAREGIGAFDIWGQGTMVTVSS
VL: EIVLTQSPGTLSLSPGERATLSCRASQSVSSSYLAWYQQKPGQAPRLLIYGASSRATGIPDRFSGSGSGTDFTLTIIRLDPEDFAVYYCQRYGSSPITFGQGTRLEIK
modifications: Human

off-rate (monomeric ALK-ECD): 2.5e-05 s⁻¹
on-rate (monomeric ALK-ECD): 32000 M⁻¹ s⁻¹
B4: 4.72.1: human anti-ALK-1 monoclonal antibody; VH SEQ ID NO: 66, VL SEQ ID NO: 68 (antibody, V domains shown)
VH: QVQLQESGPGLVKPSQTLSLTCTVSGGSISSGEYYWSWIRQHPGKGLEWIGYIFYSGSTYYNPSLKSRVTISLDTSKNQFSLKLSSVTAADTAVYYCARESTDGMDVWGQGTTVTVSS
VL: EIVLTQSPGTLSLSPGERATLSCRASQSVSSSYLAWYQRKPGQAPRLLIYGVSSRATGIPDRFSGSGSGTDFTLTISRLEPEDFAVYYCQQYGSSMITFGQGTRLEIK
modifications: Human
